Literature values, collected in PMC8507859.
Like-named read-outs stand apart in the source and are kept apart here. Each block holds one substance with its values, some of them ahead of it.

Tests used:
MMP-14 (Homo sapiens) [1] = target: MMP-14 (Homo sapiens) (UniProt P50281)
[2] = target: Integrin α2 (Homo sapiens) (UniProt P17301)
MMP-14 (Homo sapiens) [3] = target: MMP-14 (Homo sapiens) (UniProt P50281); remark: listed apart in the source

Chain of Lumican (P51884 19-338): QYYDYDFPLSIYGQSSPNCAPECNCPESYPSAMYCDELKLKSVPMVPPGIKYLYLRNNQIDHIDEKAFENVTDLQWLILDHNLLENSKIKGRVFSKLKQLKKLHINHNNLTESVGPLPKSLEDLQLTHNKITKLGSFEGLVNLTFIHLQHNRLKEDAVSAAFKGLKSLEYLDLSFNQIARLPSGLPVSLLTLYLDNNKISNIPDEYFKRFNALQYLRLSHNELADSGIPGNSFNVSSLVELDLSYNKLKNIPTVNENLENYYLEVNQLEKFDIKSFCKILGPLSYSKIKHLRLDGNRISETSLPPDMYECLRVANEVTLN
Chain of TIMP-1 (P01033 24-207): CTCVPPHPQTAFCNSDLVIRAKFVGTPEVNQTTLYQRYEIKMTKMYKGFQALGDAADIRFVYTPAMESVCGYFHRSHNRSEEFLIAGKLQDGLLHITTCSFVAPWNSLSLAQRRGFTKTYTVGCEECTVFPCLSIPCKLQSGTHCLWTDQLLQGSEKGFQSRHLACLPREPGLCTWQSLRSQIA
Chain of TIMP-2 (P16035 27-220): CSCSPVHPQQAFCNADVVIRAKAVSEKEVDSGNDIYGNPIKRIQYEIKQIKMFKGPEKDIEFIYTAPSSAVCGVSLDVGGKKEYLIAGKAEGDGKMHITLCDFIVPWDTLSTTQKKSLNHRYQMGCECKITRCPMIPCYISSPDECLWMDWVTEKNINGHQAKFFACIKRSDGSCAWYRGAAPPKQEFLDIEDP
Chain of Integrin α2 (Homo sapiens) (P17301 30-1132): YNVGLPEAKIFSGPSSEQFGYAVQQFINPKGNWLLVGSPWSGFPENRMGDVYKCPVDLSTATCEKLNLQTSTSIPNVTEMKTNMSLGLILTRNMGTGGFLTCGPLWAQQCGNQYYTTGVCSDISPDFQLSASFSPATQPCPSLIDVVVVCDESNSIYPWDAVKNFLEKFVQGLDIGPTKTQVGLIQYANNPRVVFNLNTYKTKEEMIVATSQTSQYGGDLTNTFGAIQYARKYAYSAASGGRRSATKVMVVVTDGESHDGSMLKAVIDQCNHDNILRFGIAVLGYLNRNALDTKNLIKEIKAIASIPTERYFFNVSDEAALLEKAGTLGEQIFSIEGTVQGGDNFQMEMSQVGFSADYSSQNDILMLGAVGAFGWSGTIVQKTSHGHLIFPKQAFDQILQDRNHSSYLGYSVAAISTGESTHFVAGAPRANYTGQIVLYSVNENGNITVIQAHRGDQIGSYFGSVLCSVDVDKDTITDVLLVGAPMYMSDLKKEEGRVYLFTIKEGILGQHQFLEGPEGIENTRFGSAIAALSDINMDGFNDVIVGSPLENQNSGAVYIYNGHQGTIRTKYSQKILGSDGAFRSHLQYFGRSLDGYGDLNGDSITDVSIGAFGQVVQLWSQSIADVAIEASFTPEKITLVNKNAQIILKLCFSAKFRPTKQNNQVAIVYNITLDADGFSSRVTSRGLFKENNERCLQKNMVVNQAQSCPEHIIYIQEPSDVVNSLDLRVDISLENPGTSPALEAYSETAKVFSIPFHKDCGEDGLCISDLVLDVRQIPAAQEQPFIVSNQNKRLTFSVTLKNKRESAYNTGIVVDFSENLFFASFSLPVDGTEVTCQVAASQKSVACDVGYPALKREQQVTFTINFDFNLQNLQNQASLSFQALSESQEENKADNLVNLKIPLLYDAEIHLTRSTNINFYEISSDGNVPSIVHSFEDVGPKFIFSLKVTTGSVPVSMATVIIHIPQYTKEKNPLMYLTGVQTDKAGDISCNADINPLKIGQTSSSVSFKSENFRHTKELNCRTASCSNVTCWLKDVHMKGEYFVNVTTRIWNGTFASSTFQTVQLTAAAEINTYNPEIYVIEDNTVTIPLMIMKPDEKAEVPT

- Kd (MMP-14 (Homo sapiens) [1]): 1530 nM
Substance: TIMP-1 (from UniProt P01033)

- Kd [2]: 200 nM
Substance: Lumican (from UniProt P51884)

- Kd (MMP-14 (Homo sapiens) [3]): 56.1 nM
Substance: TIMP-2 (from UniProt P16035)
